# Assay results from article PMC7948479, “Allostery in the nitric oxide dioxygenase mechanism of flavohemoglobin” (The Journal of Biological Chemistry, 2020).
# Read-outs that look alike come from different tables or passages of the source.
# Columns and labels:
# [1] = molecular target: E. coli flavoHb (Escherichia coli, UniProt P24232)
# Experimental: (§1) FAD and heme reduction were monitored by following the changes in flavoHb absorbance at 460 and 430 nm, respectively, with stopped-flow rapid mixing of 50 μM NADH and 10 μM flavoHb in N2-purged buffer ([4]). O2, NO, and CO association rate constants were determined by photolyzing 50 μM of the respective ferrous flavoHb species with a 300-ns pulse from a 577-nm laser and by spectrophotometrically following ligand reassociation in O2-, NO-, or CO-saturated buffer unless otherwise indicated ([4], [5]). […] Binding of NO was measured by the change of absorbance at 422 nm by applying a difference extinction coefficient of 0.040 μM^−1 cm^−1. O2 and CO dissociation rate constants were determined by stopped-flow rapid mixing with either CO or NO displacement ([4], [5]). The cuvette path length was 1.0 cm. All reactions were at 20 °C in filtered 100 mM sodium phosphate buffer, pH 7.0, containing 0.3 mM EDTA. Catalase (1000 U/ml) was included in all reactions containing O2 to scavenge H2O2 produced by the NADH oxidase activity of flavoHb and to regenerate O2.
# [2] = molecular target: flavoHb heme (Fe^2+ / Fe^3+) (Escherichia coli, UniProt P24232)
# Experimental: as §1
# [3] = test system: E. coli flavoHb
# Experimental: as §1
# [4] = test system: anaerobic E. coli; set-up: method as in PMID 11751864; conditions: cited from earlier work
# [5] = test system: E. coli flavoHb-NOD; assay type: biochemical, Escherichia coli; conditions: for Ki: NO competitive with O2; for K3: NO passage through gate, apparent Km(NO); for Kii(NO): NO uncompetitive inhibition; for K2: O2 displacement of LeuE11; for k'NOD app: calculated from Vmax/K3; for k'NOD: calculated from Vmax/K4; for K4: reaction of NO with Fe^3+O2^−; for KT: trigger step equilibrium constant
# Source text: We have formulated a steady-state velocity equation for the catalytic cycle with the activating trigger step (KT) (Equation 1).(1) v= Vmax(a) where a=([NO]^2[O2]^2/K1K2K3KTK4)/(1+([O2]/K1)+([O2]^2/K1K2)+(([O2]^2[NO])/K1K2K3)+(([O2]^2[NO])/K1K2K3KT)+(([O2]^2[NO]^2)/K1K2K3KTK4))
# (2) v= Vmax(a)(b) where b=[NO]/(K3+([NO](1+((K2/[O2])(1+([NO]/Ki(NO)))))))
# In addition, we have introduced a factor and equilibrium constant Ka(O2) for rare situations in which O2 causes an additional NO-independent activation of catalysis possibly by occupying unique binding sites or cavities (Equation 5).
# NOD activity was measured amperometrically in 100 mM phosphate buffer, pH 7.0, containing 0.3 mM EDTA, 100 μg/ml bovine serum albumin (BSA) (Fraction V), 100 μM NADH, 0.1 μM FAD with NO, O2, and N2 mixtures added as described ([4], [72]). NADH oxidase activity was followed spectrophotometrically at 340 nm in a 1.0-ml cuvette containing 90 mM Tris chloride buffer, pH 8.2, 100 μM NADH, 200 μM O2, 0.1 μM FAD, 100 μg/ml BSA, and 0.3 mM EDTA and incubated at 37 °C. Cytochrome b5 reductase activity was assayed at 37 °C by following the rate of absorbance increase at 555 nm in a 1.0-ml reaction buffered with 90 mM Tris chloride, pH 8.2, and containing 10 μM ferric cytochrome b5, 200 μM O2, 20 μM NADH, 0.1 μM FAD, 100 μg/ml BSA, and 0.3 mM EDTA. TMAO reductase activity was assayed by following the absorbance decrease at 340 nm in a 1.0-ml anaerobic reaction containing 12 U Aspergillus niger glucose oxidase, 5 mM glucose, 260 U catalase, 400 mM TMAO, 100 μM NADH, 0.1 μM FAD, 100 μg/ml BSA, and 0.3 mM EDTA in 90 mM Tris chloride pH 8.2 and incubated at 37 °C. Ngb reductase activity was assayed by following the absorbance increase at 424 nm in a 1.0-ml anaerobic reaction containing 12 U glucose oxidase, 5 mM glucose, 260 U catalase, 5 μM Ngb, 50 μM NADH, 0.1 μM FAD, 100 μg/ml BSA, and 0.3 mM EDTA in 90 mM Tris chloride buffer, pH 8.2, and incubated at 37 °C. Methyl viologen reductase activity was assayed by following the formation of the blue cation radical at 603 nm and by applying an extinction coefficient of 13,300 M^−1 cm^−1 in a 1.0-ml anaerobic reaction buffered with 10 mM potassium phosphate, pH 7.0, and containing 12 U glucose oxidase, 5 mM glucose, 260 U catalase, 100 μM NADH, 0.1 μM FAD, 100 μg/ml BSA, 0.3 mM EDTA, and 200 mM sodium chloride and incubated at 37 °C. NO reductase activity was assayed amperometrically at 37 °C in a 1.0-ml anaerobic reaction containing 2 μM NO, 100 μM NADH, 0.1 μM FAD, 12 U glucose oxidase, 5 mM glucose, 260 U catalase, 100 μg/ml BSA, and 0.3 mM EDTA buffered with 10 mM potassium phosphate pH 7.0. CO effects were tested at a final concentration of 50 μM as diluted from a 1 mM stock in water. All activities are reported relative to the heme content of flavoHb.
# Rate constants were estimated from the model kinetic equation using Python programming with successive approximations to optimize fits with varying NO and O2 concentrations. Vmax, K1, K2, KT, and Kii(NO) values were treated as independent variables for a given flavoHb while allowing K3, K4, and Ki(NO) to vary over limited ranges with varying O2 concentration. Kii(NO) was estimated from NO inhibition at saturating O2 concentrations.
# [6] = test system: E. coli growth; set-up: method as in PMID 11751865; conditions: atmosphere containing 5 μM O2 and 0.5 μM NO; cited from earlier work
molecule,measurement,setting,value
"WT: wild-type E. coli flavohemoglobin (flavoHb), an NO dioxygenase (NOD) (protein, UniProt P24232 1-396, looked up) Flavohemoprotein: MLDAQTIATVKATIPLLVETGPKLTAHFYDRMFTHNPELKEIFNMSNQRNGDQREALFNAIAAYASNIENLPALLPAVEKIAQKHTSFQIKPEQYNIVGEHLLATLDEMFSPGQEVLDAWGKAYGVLANVFINREAEIYNENASKAGGWEGTRDFRIVAKTPRSALITSFELEPVDGGAVAEYRPGQYLGVWLKPEGFPHQEIRQYSLTRKPDGKGYRIAVKREEGGQVSNWLHNHANVGDVVKLVAPAGDFFMAVADDTPVTLISAGVGQTPMLAMLDTLAKAGHTAQVNWFHAAENGDVHAFADEVKELGQSLPRFTAHTWYRQPSEADRAKGQFDSEGLMDLSKLEGAFSDPTMQFYLCGPVGFMQFTAKQLVDLGVKQENIHYECFGPHKVL","k′H, bimolecular rate constant for hydride transfer NADH to FAD",[1],1.5e+07 M⁻¹ s⁻¹
same,decrease of fraction of flavoHbFe^3+O2^− formed in the fast phase,[2],~50%
same,τT for O2 rebinding,[2],~55 μs
same,"kET, heme reduction by FADH2 (maximum / apparent)","[3]; 20 °C, absorbance at 430 nm",120 s⁻¹
same,maximal NADH-driven ET rate measured by stopped flow,[3]; Fig. 9B,160 s⁻¹
same,NO metabolic activity,[4],insignificant NO metabolic activity
same,Vmax,[5]; 20 °C,160 NO heme^−1 s^−1
same,Ki,[5]; 20 °C,300 to 1000 nM
same,K3,[5]; 20 °C,0.1–0.4 Micromolar
same,Kii(NO),[5]; 20 °C,10 (10) Micromolar
same,K2,[5]; 20 °C,20 Micromolar
same,k'NOD app,[5]; 20 °C,0.4–1.6 10^9 M^−1 s^−1
same,k'NOD,[5]; 20 °C,0.5–2.7 10^9 M^−1 s^−1
same,K4,[5]; 20 °C,0.06–0.3 Micromolar
same,KT,[5]; 20 °C,0.1 (0.1)
same,Vmax,[5]; 37 °C,580 NO heme^−1 s^−1
same,Ki,[5]; 37 °C,700 to 1200 nM
same,K3,[5]; 37 °C,0.25 Micromolar
same,Kii(NO),[5]; 37 °C,10 (10) Micromolar
same,K2,[5]; 37 °C,120 Micromolar
same,k'NOD app,[5]; 37 °C,2.3 10^9 M^−1 s^−1
same,k'NOD,[5]; 37 °C,9.7–19 10^9 M^−1 s^−1
same,K4,[5]; 37 °C,0.03–0.06 Micromolar
same,KT,[5]; 37 °C,0.1 (0.1)
same,overall activation energy (Ea),[5]; Arrhenius equation for Vmax at 37 and 20 °C,~13.7 kcal/mol
same,protection of E. coli growth,[6],fully protects
